Test results published in patent US20120039802A1 (published 2012).
fluorescein = fluorescein label on the side chain of the C-terminal Lys

target: T1, cMet-Fc fusion protein (extracellular domain of the cMet receptor expressed as an Fc-fusion protein) (human, UniProt P08581 25-932); assay: phage ELISA on cMet-Fc, competitor HGF 100 ng/mL
T1 construct: extracellular domain; also called soluble cMet-Fc-fusion protein; soluble cMet receptor; not shown: Fc part
Outline: (§1)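 Plates coated with 0.5 μg/mL cMet-Fc, with TRAIL-Fc as background, then blocked with 3% BSA. Bound phage detected with HRP anti-M13 antibody.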

T1 sequence (P08581 25-932): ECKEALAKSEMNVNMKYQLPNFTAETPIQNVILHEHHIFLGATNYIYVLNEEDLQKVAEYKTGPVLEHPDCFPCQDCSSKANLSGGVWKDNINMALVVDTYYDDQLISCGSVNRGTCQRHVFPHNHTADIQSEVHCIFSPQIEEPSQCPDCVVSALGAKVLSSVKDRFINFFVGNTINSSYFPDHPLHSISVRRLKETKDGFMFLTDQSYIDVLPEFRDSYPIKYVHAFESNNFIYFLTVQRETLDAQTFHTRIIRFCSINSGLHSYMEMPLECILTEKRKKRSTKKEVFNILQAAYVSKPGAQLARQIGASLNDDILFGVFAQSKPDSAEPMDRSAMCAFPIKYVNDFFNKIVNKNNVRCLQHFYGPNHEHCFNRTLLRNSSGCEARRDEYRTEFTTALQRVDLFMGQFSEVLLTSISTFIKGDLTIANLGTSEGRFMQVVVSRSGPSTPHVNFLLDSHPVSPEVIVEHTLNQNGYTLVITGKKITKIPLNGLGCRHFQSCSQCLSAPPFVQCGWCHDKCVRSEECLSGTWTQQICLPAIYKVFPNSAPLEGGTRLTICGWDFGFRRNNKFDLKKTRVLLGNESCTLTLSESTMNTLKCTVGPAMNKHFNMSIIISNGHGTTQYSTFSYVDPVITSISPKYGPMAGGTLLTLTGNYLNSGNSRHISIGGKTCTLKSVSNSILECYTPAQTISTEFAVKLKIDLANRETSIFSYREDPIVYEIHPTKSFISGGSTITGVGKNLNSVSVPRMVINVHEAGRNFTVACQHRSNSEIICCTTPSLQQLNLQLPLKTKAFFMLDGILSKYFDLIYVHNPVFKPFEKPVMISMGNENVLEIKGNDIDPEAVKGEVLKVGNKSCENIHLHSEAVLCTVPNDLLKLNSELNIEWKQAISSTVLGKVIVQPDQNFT

| Binder | % of binding in the absence of HGF |
| --- | --- |
| AGVIVCNLSMMYCLYPGT [499-C09 peptide-displaying phage (SEQ ID NO: 023)] | 91% |
| AGYPECKDNYHWCEWKGT [457-A09 peptide-displaying phage (SEQ ID NO: 024)] | 27% |
| AGVLQCIGFEWFCDIWGT [423-C11 peptide-displaying phage (SEQ ID NO: 022)] | 132% |

target: T1, cMet-Fc fusion protein (extracellular …); assay: phage ELISA on cMet-Fc, competitor HGF 500 ng/mL
Outline: as §1

| Binder | % of binding in the absence of HGF |
| --- | --- |
| AGVIVCNLSMMYCLYPGT [499-C09 peptide-displaying phage (SEQ ID NO: 023)] | 70% |
| AGYPECKDNYHWCEWKGT [457-A09 peptide-displaying phage (SEQ ID NO: 024)] | 67% |
| AGVLQCIGFEWFCDIWGT [423-C11 peptide-displaying phage (SEQ ID NO: 022)] | 75% |

target: T1, cMet-Fc fusion protein (extracellular …); assay: fluorescence polarization, 20 nM fluorescein peptide, cMet-Fc varied
Description: (§2) Fluorescence anisotropy measurements were performed in 384-well microplates in a volume of 10 μL in binding buffer (PBS, 0.01% Tween-20, pH 7.5) using a Tecan Polarion fluorescence polarization plate reader ([…]). […] Binding mixtures were equilibrated for 10 minutes in the microplate at 30 C before measurement. The observed change in anisotropy was fit to the equation below via nonlinear regression to obtain the apparent KD. This equation (1) assumes that the synthetic peptide and cMet form a reversible complex in solution with 1:1 stoichiometry.

| Binder | Kd |
| --- | --- |
| Ac-GDYDYCDFDLETYIPECHSYDPGGGK(fluorescein)-NH2 (cysteine pairing not given here) [546-G02 synthetic fluorescein-labeled peptide (SEQ ID NO: 390)] | 1500 nM |
| Ac-AGHAWCSGPPRFECWPPGTGGGK(fluorescein)-NH2 (cysteine pairing not given here) [329-D02 synthetic fluorescein-labeled peptide (SEQ ID NO: 061)] | 5200 nM |
| Ac-AQRPEAHYKLAMSYPIIPRTKTGGGK(fluorescein)-NH2 [96-H12 synthetic fluorescein-labeled peptide (SEQ ID NO: 452)] | > 2000 nM |
| Ac-AGDIVCTGHPYFECWSWGTGGGK(fluorescein)-NH2 (cysteine pairing not given here) [333-C05 synthetic fluorescein-labeled peptide (SEQ ID NO: 068)] | 2800 nM |
| Ac-AQIQGIQKTEQGEFYWFNWFPAGGGK(fluorescein)-NH2 [528-F05 synthetic fluorescein-labeled peptide (SEQ ID NO: 450)] | 2700 nM |
| Ac-AQVGSPMLPSWFSFEANWSSGGGK(fluorescein)-NH2 [95-A11 synthetic fluorescein-labeled peptide (SEQ ID NO: 456)] | 2300 nM |
| Ac-AQYDTWVFQFIHEVPGELVAMQGGGK(fluorescein)-NH2 [94-E08 synthetic fluorescein-labeled peptide (SEQ ID NO: 454)] | 930 nM |
| Ac-AQHQYGQMMVLHIQYDMGEFIPGGGK(fluorescein)-NH2 [117-F08 synthetic fluorescein-labeled peptide (SEQ ID NO: 462)] | > 2000 nM |
| Ac-AGSIQCVGPPSFECTPYGTGGGK(fluorescein)-NH2 (cysteine pairing not given here) [335-D11 synthetic fluorescein-labeled peptide (SEQ ID NO: 074)] | 3300 nM |
| Ac-AQHSVQRQMDVWMPVQFMAGFTGGGK(fluorescein)-NH2 [02-B08 synthetic fluorescein-labeled peptide (SEQ ID NO: 467)] | > 2000 nM |
| Ac-AGNWICTGPPSFGCWYHGTGGGK(fluorescein)-NH2 (cysteine pairing not given here) [331-G06 synthetic fluorescein-labeled peptide (SEQ ID NO: 078)] | 2900 nM |
| Ac-AQDLKPWTAGWEPPWLWTDRGPGGGK(fluorescein)-NH2 [104-C09 synthetic fluorescein-labeled peptide (SEQ ID NO: 461)] | > 2000 nM |
| Ac-AQVGTAEAIMFSDVEDTGVHKFGGGK(fluorescein)-NH2 [103-G08 synthetic fluorescein-labeled peptide (SEQ ID NO: 459)] | > 2000 nM |
| Ac-AQGFELWVDHTRNFFIAISPGGGK(fluorescein)-NH2 [127-A07 synthetic fluorescein-labeled peptide (SEQ ID NO: 469)] | 2400 nM |
| Ac-AQREVEEPYWYLDFLSSWRMHEGGGK(fluorescein)-NH2 [524-E09 synthetic fluorescein-labeled peptide (SEQ ID NO: 451)] | 2000 nM |
| Ac-AGYTSCVGPPSFECTPYGTGGGK(fluorescein)-NH2 (cysteine pairing not given here) [323-A11 synthetic fluorescein-labeled peptide (SEQ ID NO: 059)] | 4300 nM |
| Ac-AGGWECTGPPWFQCGYYGTGGGK(fluorescein)-NH2 (cysteine pairing not given here) [334-C08 synthetic fluorescein-labeled peptide (SEQ ID NO: 067)] | 1650 nM |
| Ac-AGEWWCHGPPEFLCYWTGTGGGK(fluorescein)-NH2 (cysteine pairing not given here) [331-F01 synthetic fluorescein-labeled peptide (SEQ ID NO: 072)] | 980 nM |
| Ac-AQEWEREYFVDGFWGSWFGIPHGGGK(fluorescein)-NH2 [130-E10 synthetic fluorescein-labeled peptide (SEQ ID NO: 472)] | 2600 nM |

| Binder | Kd |
| --- | --- |
| Ac-AQWPHDGLVHWGEVIMLRFGGGK(fluorescein)-NH2 [117-F04 synthetic fluorescein-labeled peptide (SEQ ID NO: 479)] | 1700 nM |
| Ac-AQKETWEFFDIVYGSGWKFNSPGGGK(fluorescein)-NH2 [116-H02 synthetic fluorescein-labeled peptide (SEQ ID NO: 466)] | > 2000 nM |
| Ac-GDDFHCEFIDDYQSEICYFNDPGGGK(fluorescein)-NH2 (cysteine pairing not given here) [333-C03 synthetic fluorescein-labeled peptide (SEQ ID NO: 391)] | 1800 nM |
| Ac-GSWIICWWDNCGSSAPGGGK(fluorescein)-NH2 (cysteine pairing not given here) [571-C05 synthetic fluorescein-labeled peptide (SEQ ID NO: 001)] | 200 nM |
| Ac-AQHWDYDSGSDFWFPVFFLEHHGGGK(fluorescein)-NH2 [79-B02 synthetic fluorescein-labeled peptide (SEQ ID NO: 475)] | 1900 nM |
| Ac-AGWFQCKGPPSFECERHGTGGGK(fluorescein)-NH2 (cysteine pairing not given here) [336-G04 synthetic fluorescein-labeled peptide (SEQ ID NO: 051)] | 3200 nM |
| Ac-AQVPDWLSAVVIEKLIEYGMMVGGGK(fluorescein)-NH2 [93-C08 synthetic fluorescein-labeled peptide (SEQ ID NO: 464)] | > 2000 nM |
| Ac-AGWTHCIGPPTFECIPMGTGGGK(fluorescein)-NH2 (cysteine pairing not given here) [334-G06 synthetic fluorescein-labeled peptide (SEQ ID NO: 052)] | 2700 nM |
| Ac-AQVEDMATVHFKFNPATHEVIWGGGK(fluorescein)-NH2 [524-H02 synthetic fluorescein-labeled peptide (SEQ ID NO: 492)] | 800 nM |
| Ac-AQPYYELQDADMLLVVALLSTGGGGK(fluorescein)-NH2 [94-F07 synthetic fluorescein-labeled peptide (SEQ ID NO: 458)] | 3750 nM |
| Ac-AGSWHCAGPPSFECWEFGTGGGK(fluorescein)-NH2 (cysteine pairing not given here) [331-G04 synthetic fluorescein-labeled peptide (SEQ ID NO: 055)] | 900 nM |
| Ac-AQQASRFTFTDGDSYWWFEDFGGGK(fluorescein)-NH2 [525-A07 synthetic fluorescein-labeled peptide (SEQ ID NO: 449)] | 6900 nM |
| Ac-AQSPYIFPIDDSGRQIFVIQWGGGGK(fluorescein)-NH2 [76-D09 synthetic fluorescein-labeled peptide (SEQ ID NO: 463)] | > 2000 nM |
| Ac-AGWISCAGPPTFACWPGGTGGGK(fluorescein)-NH2 (cysteine pairing not given here) [548-F06 synthetic fluorescein-labeled peptide (SEQ ID NO: 056)] | 2700 nM |
| Ac-AGSFACKGPPTFACVEFGTGGGK(fluorescein)-NH2 (cysteine pairing not given here) [330-B07 synthetic fluorescein-labeled peptide (SEQ ID NO: 053)] | 2900 nM |
| Ac-AGHWICVGPPTFSCQWHGTGGGK(fluorescein)-NH2 (cysteine pairing not given here) [330-G09 synthetic fluorescein-labeled peptide (SEQ ID NO: 071)] | 1850 nM |
| Ac-AGSIQCKGPPWFSCAMYGTGGGK(fluorescein)-NH2 (cysteine pairing not given here) [325-H05 synthetic fluorescein-labeled peptide (SEQ ID NO: 048)] | 3500 nM |
| Ac-AQRWSSPGMSQSFVLEWKWNDNGGGK(fluorescein)-NH2 [118-A08 synthetic fluorescein-labeled peptide (SEQ ID NO: 453)] | > 2000 nM |

target: T1, cMet-Fc fusion protein (extracellular …); assay: phage ELISA, cMet-Fc vs TRAIL-Fc
Outline: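 Specificity check: phage displaying peptides incubated 2 h at room temperature on wells coated with 0.5 μg/mL cMet-Fc versus TRAIL-Fc, after blocking with 3% BSA/PBST. HRP-anti-M13 antibody detected binding phage.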

| Binder | Protein ELISA (fold over background) |
| --- | --- |
| AGVIVCNLSMMYCLYPGT [499-C09 peptide-displaying phage (SEQ ID NO: 023)] | 3.2 fold |
| AGYPECKDNYHWCEWKGT [457-A09 peptide-displaying phage (SEQ ID NO: 024)] | 14.5 fold |
| AGVLQCIGFEWFCDIWGT [423-C11 peptide-displaying phage (SEQ ID NO: 022)] | 3.4 fold |

target: T2, human cMet expressed on 3T3 cells (human, UniProt P08581 25-1390); assay: whole cell phage ELISA, 3T3 human cMet vs 3T3
T2 construct: whole, on cells; cells fixed with glutaraldehyde; also called cell surface-expressed human cMet; 3T3 cells that over-express human cMet
Outline: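 Bound phage was detected with an HRP-conjugated anti-M13 antibody after PBST washes. The cells were cMet-over-expressing 3T3, read against plain 3T3.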

T2 sequence (P08581 25-1390): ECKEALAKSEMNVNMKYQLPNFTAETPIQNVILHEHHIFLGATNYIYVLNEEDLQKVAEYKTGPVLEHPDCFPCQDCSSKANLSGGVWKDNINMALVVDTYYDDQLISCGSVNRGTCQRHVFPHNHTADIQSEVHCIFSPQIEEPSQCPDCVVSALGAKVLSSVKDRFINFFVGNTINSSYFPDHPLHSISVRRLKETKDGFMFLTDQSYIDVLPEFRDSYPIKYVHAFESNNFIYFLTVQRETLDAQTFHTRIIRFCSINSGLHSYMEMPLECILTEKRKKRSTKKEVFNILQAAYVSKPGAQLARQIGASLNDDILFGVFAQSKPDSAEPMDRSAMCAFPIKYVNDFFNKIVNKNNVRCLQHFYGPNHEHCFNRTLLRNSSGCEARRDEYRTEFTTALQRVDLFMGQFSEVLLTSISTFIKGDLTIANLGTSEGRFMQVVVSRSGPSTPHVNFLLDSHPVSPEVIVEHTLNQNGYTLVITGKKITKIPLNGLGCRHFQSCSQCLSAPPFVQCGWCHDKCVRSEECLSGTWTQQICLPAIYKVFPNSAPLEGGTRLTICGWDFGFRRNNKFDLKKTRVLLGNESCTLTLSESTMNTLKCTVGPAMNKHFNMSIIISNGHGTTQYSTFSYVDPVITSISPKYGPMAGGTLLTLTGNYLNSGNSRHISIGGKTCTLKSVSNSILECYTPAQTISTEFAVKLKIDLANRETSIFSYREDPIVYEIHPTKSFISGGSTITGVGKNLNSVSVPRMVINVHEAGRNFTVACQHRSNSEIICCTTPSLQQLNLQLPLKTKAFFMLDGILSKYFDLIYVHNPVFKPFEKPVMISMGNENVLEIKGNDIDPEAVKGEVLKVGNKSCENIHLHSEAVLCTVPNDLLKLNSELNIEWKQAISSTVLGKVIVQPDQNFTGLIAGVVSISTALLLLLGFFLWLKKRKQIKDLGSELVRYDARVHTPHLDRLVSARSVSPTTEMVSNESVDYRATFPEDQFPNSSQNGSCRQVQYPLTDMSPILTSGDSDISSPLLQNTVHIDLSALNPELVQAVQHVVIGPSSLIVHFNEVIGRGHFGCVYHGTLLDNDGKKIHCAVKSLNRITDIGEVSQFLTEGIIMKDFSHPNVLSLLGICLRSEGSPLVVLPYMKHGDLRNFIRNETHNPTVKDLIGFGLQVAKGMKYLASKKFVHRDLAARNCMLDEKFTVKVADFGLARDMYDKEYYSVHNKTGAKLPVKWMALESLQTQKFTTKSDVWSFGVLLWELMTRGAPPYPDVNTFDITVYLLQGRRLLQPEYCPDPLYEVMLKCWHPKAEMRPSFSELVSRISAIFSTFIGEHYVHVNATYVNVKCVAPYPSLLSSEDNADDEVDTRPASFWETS

| Binder | WC ELISA (fold over background) |
| --- | --- |
| AGVIVCNLSMMYCLYPGT [499-C09 peptide-displaying phage (SEQ ID NO: 023)] | 1.33 fold |
| AGYPECKDNYHWCEWKGT [457-A09 peptide-displaying phage (SEQ ID NO: 024)] | 1.3 fold |
| AGVLQCIGFEWFCDIWGT [423-C11 peptide-displaying phage (SEQ ID NO: 022)] | 1.4 fold |

target: T3, mouse cMet (mouse, UniProt P16056 25-931, limits assumed); assay: fluorescence polarization, mouse target
T3 construct: Construct not described; also called Kd (mouse) target
Description: as §2

T3 sequence (P16056 25-931 limits assumed): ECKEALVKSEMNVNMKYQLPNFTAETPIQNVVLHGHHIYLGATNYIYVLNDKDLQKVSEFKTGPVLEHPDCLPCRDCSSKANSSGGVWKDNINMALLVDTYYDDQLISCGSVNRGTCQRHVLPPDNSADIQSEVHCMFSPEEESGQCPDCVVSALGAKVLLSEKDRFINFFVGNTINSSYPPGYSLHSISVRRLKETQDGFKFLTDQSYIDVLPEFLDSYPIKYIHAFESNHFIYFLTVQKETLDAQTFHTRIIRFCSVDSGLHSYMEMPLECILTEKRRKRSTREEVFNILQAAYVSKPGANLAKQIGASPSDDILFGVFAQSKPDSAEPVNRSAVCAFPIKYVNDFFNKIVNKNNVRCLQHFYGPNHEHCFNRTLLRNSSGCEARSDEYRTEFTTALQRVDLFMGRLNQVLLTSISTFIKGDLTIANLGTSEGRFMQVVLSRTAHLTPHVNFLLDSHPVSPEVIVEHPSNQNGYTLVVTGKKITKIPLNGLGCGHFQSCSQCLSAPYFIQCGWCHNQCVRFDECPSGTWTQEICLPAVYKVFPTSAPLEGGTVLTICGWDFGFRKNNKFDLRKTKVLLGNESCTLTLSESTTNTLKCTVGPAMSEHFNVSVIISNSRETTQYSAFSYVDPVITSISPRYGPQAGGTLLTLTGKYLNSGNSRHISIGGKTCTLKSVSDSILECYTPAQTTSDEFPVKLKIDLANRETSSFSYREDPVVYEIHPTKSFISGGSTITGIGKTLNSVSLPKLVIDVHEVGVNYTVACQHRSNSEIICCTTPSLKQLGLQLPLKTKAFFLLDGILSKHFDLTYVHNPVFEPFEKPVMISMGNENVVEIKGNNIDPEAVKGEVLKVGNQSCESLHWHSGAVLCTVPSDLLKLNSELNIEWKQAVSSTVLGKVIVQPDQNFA

| Binder | Kd |
| --- | --- |
| Ac-AQEWEREYFVDGFWGSWFGIPHGGGK(fluorescein)-NH2 [130-E10 synthetic fluorescein-labeled peptide (SEQ ID NO: 472)] | 7650 nM |
| Ac-GSWIICWWDNCGSSAPGGGK(fluorescein)-NH2 (cysteine pairing not given here) [571-C05 synthetic fluorescein-labeled peptide (SEQ ID NO: 001)] | 3500 nM |
| Ac-AGSWHCAGPPSFECWEFGTGGGK(fluorescein)-NH2 (cysteine pairing not given here) [331-G04 synthetic fluorescein-labeled peptide (SEQ ID NO: 055)] | 1100 nM |
